Experimental data published in the DeepSol protein solubility set.

test: soluble on expression in E. coli; label from the status in PepcDB or PDB records

| Sequence | soluble on expression in E. coli |
| --- | --- |
| MFEINKQIGIYIHFPWCVRKCPYCDFNSHPIKDDSYLSEQYYQKLIADFDTHLDDLQAREVISIFIGGGTPSLFKAEYLDKVLQHITKNTKISINCEITLEMNPGTVERGSILSYQNIGINRISLGVQSFQDDKLKILGRIHNCENVYTTIDEIKNSKISNFNIDIMHGLPNQSFDDGIFDITQAIAMQPTHISWYQLTIEPNTLFAAKRPKFPDEEILESIEIAGKEALAHAGFKQYEVSAFAKNTLRSIHNSNYWMFGDYIGIGAGAHSKITNLKTKQIKRVWKHKHPKIYTQTDKFIKDSNIVTQDEIIYEFMLNTLRLKNGFKLSEFEQQTFLSSNIISQKLQLGIDKGLLELNANQIKPTAKGYLFLNDCINIFS | not soluble |
| MFFIMNYHIDWLTIEQDFGFEIPESILAAIFDFGMVGIHLDTGEMQEGIKTGKYRHKGSFCDEVSIKVSGSVIKMEGNPSRWGKVENVLGFTDVDSCVACFNNILFSLNLPLFTRCTEVFYLQGKEGEKVKKFSNGAIIKRLDITTNKSVGKGNERTFLKALSQMRYRNSVGRLHTNHCTVDWLSEKGNANLIYPSCYIKHEEMKLHSYDKIKNKFGQQAKEFQYYQKVFDYCLENGVVRFEQKLKSRYLQRENLCYWGLSDFSKLNEIQDGFINMYKKLSVSEVKLETIAQQLVSQGVVDTLRKANTTAYYAMRWSSGEDLSLLPIATFKRHRAILRKIGIDIANPCDIEKFQAVRVISCEQIFVKPFKAPDFYQYPSNMPQLRLVALEHHHHHH | not soluble |
| MFFKRGKILSAGRLNKKSLGIVMLLSVGLLLAGCSGSKSSDTGTYSGSVYTVKRGDTLYRISRTTGTSVKELARLNGISPPYTIEVGQKLKLGGAKSSSITRKSTAKSTTKTASVTPSSAVPKSSWPPVGQRCWLWPTTGKVIMPYSTADGGNKGIDISAPRGTPIYAAGAGKVVYVGNQLRGYGNLIMIKHSEDYITAYAHNDTMLVNNGQSVKAGQKIATMGSTDAASVRLHFQIRYRATAIDPLRYLPPQGSKPKC | not soluble |
| MFFNLRKNKKRLGWFNNGEVEAVAKDLGVAPSEVREMEARLAAQDSTFEAPAEDDDRDMAFTAPVYYLEDKQSDVAYSLEEDNWEDYTNNRLANAIATLDERSQHIVQSRWLADEKATLQELADTYQVSAERIRQLEKNAMKKLKDAVGDVL | not soluble |
| MFGGIENVKAAEPKVYQFDFGSGSMEPGYIGVRASDRYDRSKGYGFQTPENMRDVAASGAGVKSDAVEFLAYGTKSNNTFNVDLPNGLYEVKVTLGNTARASVAAEGVFQVINMTGDGAEDTFQIPVTDGQLNLLVTEGKAGTAFTLSALKIKKLSDQPVTNRTIYVGGDSTVCNYYPLNSSKQAGWGQMLPHYIDKHTFQVRNMASGGQIARGFRNDGQLEAILKYIKPGDYFMLQLGINDTNPKHKESEAEFKEVMRDMIRQVKAKGADVILSTPQGRATDFTSEGIHSSVNRWYRASILALAEEEKTYLIDLNVLSSAYFTSIGPERTLGLYMDGDTLHPNRAGADALARLAVQELKRQGIAGFLEHHHHHH | soluble |
| MFGGSAPKPSIFGGTAATTTASSGFSFGNSSTSTANTGGNTNTTGGFSFGSAQPSTGSTGLFGNSTATGSMFGGSSAAAPAPASAGIFGNSGAAAPAPASTSIFGSSANSAAPATVTFGASAPSAGAGMFGANKPAAPTGGLFGSSTSTATTAPTGGLFGSSTAAPSSGLFGSTAAPAAPGGLFGSTSTSTAAPSGGLFGSSAAPTSTAPAPSGGLFGAAPATSNAAPTSGLFGNSAPAATASSGGLFGAAPKPAAPSGGLFGSTAPATTAATTTATSGLFGAPTSAPSSAPATGGLFGASTAPAAATGGLFSIGAASASTPSVGLFGNSSASTTAAAAPATAPAAASTGGLFGATTAAAAAPTSSTTGGLFGSTAAAPAASLPTGGLFGSSTPAKTPAAPTAGLFGASSTTTTSAPATGSLFGTAPATTTATSAAPAASTGGLFGASSTTTPASTAPTGGLFGAATTTAPAAAAPTGGLFGAATTTAPATVGPTGGLFGAATTTTPATAATLGQTPSTVSATPSLPTTTSTTSTLPKPAEATPTLGLGLGLTSTPLAKGTGWTTSGLKGAATTSAGLKIGASGSDTLSEEEIKAGLGGNDTKAFFTALQEVVNSYHSEIAKQERVFHNKMLELNAYDRELITLEPKVLGLYNEMDDLSGSCKKLHFNVASMTSVLNDIEQNVVELENKLSLPEWHTLDYKFPLDSRFASRHDVQRVQIAQMMLNVDSQMKCADFDLDQITKSLNTMQSTVLKTKTETPLEKTELIMKKQLQKLMDLSTQHDATRDKLNKLKDDHNLKTNNSSKA | not soluble |
| MFGLKVKNAEADTAKSNEKLQGAEATGSSTTSGSGQSTQRGGSSGDTKVKALQVAVKKKSGSQGNSGDQGTEQVELESNDLANAPIKRGSNPASPTQGSRLRHHPIQFGIWSIRHPHPLKAVACDRANSQGPPQMIRLDPHSVRCALCL | soluble |
| MFGRQVGRVVFRTASVVVQRRSVSASVPQMVKLVAPSVNFIQTRGSKIEVFGPFDPPKQLTFKQVEDRVLKAVRSWDRFPADKESLLKLDADLSKDFGFDSLDQVEIVMALEDEFGFEIPLQDSDKFKTIRDAFKYICEREDVYE | not soluble |
| MFGWRGRIGLIVPSSNTTMEMELHSFLPEGVSLHTSRMPLKSITDEELFKMNSYAIEAASLLADAGVEVIAFGCSSGSFIGGQDFEKELEMKIEEEVNIETFTTSTAVLEALDVLDAQSLLIVTPYSDEINQKEKEFLEGNGFEVLDIKGLNLTDNLEIGKLEPYVVYRLAKAMFAGDADAIFISCTNLRTFEIIEKLERDLGVPVITSNQATLWMALRQIDVRDQLPLGKLLREY | soluble |
| MFHGKHPGGLSERGRALLLEGGKALGLDLKPHLEAFSRLYALLQEASGKVNLTALRGEEEVVVKHFLDSLTLLRLPLWQGPLRVLDLGTGAGFPGLPLKIVRPELELVLVDATRKKVAFVERAIEVLGLKGARALWGRAEVLAREAGHREAYARAVARAVAPLCVLSELLLPFLEVGGAAVAMKGPRVEEELAPLPPALERLGGRLGEVLALQLPLSGEARHLVVLEKAALTSLAYPRRPGVPERHPLC | soluble |
| MFIDTLIEKIREKDNPSVVGLDPKIEYVPSFIKEDMYKKYGKNLKAVAEAILLFNKYIIDAVYDIVPAVKPQLAYYEMYGLEGMRVFYETCKYAKEKGLLVIADGKRNDIGSTAQCYSAAYLGKTDIDEGISEAVFDVDALTVNPYLGVDGIKPFIDDCVKYNKGIFVLVKTSNKSSGEIQDILTQEGRSIYEIVAEYVESWGENKKGKYGYSCVGAVVGATYPNLAKILRKILKNSYILVPGYGAQGGTARDVAHCFNYDGLGAIVNASRSIMCAYKSEQWKNVYSEEKFYEASRAEAIRMRDDINSALRDRK | not soluble |
| MFIKIFLITYRYKLTVISIIGGGTIGSSIAIPLKRSGFEVIVTRRNTAVLKHLESYGISVMSDNKTASKEADVVFLTLKPVDIIPEVRKIEENIRGKLLISMAAAIPLKLIKDAAPHSIVVRAMTNIAAKVGAGFTPFCVDDGDQEVAKRASSILSALGEVYLVEEKYMDALTALSGSGPAYILTIIEAMMYGGLKLGLPRDLALKASYQTVMGSAKLLAESGEHPSELKEKVITPGGTTIDGIYELEDARVRTAIMKAIEVSTMKANKISESIKKLEQLEHHHHHH | not soluble |
| MFKKLFGLGSKTNEETIVAPLTGAVKNIEEVPDPVFAGRMMGDGVAIDPTEGVVVSPVDGEIVQLFHTKHAIGIKAKNGTEILIHVGLETVKMEGEGFEAHVSEGQAVKAGDKLISFDLELIREKAKSTITPIVITNTDAAESIKTTVGVTATKGSTEVMKVTMK | not soluble |
| MFLDRERELQFLERRYEMGGPEFIVIYGRRRVGKTALLLEFISRHGGIYLLARETSNLENLKRFSDRLSEYFGDDFLKRNPFQNWDAFLEYLNQKATERLVVVIDEFPYLVKGDRSLPSILQEYWDLKLSNGRIFLIICGSSISMMEKLLGYKSPIYGRRTGQINLKPVDFLHAREFLPGYSLEDFIKAYGILGGSPAHLLEFDDSKTIKENLLEYLRSDSLLYQDAFFVLREELEEPRNYFAIMEAVAAGKTSLGEIMNETGLSRATVAKYLSVLIELDFVKREIPITASRKSRRGRYYIKDNYFAFWFRYIHPNIDFIESERRKELLELIIDDLPNYLGGIFENVAIEFLPLISNKLPFKPLKIGRWWHKNEEIDLVAFNEKEEKAILIEVKWKTLNKIEANKILKDLNRKSKILKMKEWEQYHGIIAKRVKDKEKIKGGLIWDLEDIENLKFSPELEHHHHHH | not soluble |
| MFLKVRAEKRLGNFRLNVDFEMGRDYCVLLGPTGAGKSVFLELIAGIVKPDRGEVRLNGADITPLPPERRGIGFVPQDYALFPHLSVYRNIAYGLRNVERVERDRRVREMAEKLGIAHLLDRKPARLSGGERQRVALARALVIQPRLLLLDEPLSAVDLKTKGVLMEELRFVQREFDVPILHVTHDLIEAAMLADEVAVMLNGRIVEKGKLKELFSAKNGEVAEFLSARNLLLKVSKILD | soluble |
| MFLLKQIGVIRSPFKSPSECPFQGRFSQERFTIELFPEYEEGLKDIETCTHLIVLYWLDRANRDRLIAIPPFDKREHGVFATRSPHRPNPIGFSVVKLLEVRGRELVVEGLDAVDGTPVVDIKPYSSKIDCVENARIGWFEEV | soluble |
| MFMIKVITPETNHPKEGGILSALVSIYNCTIHIRKPRFTADQYKKYLHDHNQLLSHFVLHEHHSLAKEFPVMGVHLKELDRINPAQVHPDIKIISTSIHSIADAGNLSHPFEYIFYSPLFQSISKENYGTNNSLADLKKTVSELKEQTGIPIIGLGGIYEANIDLVKKSGFDGAALLGAVWVQSDPLAAFGRIASMILEHHHHHH | not soluble |
| MFNCLTKLVILVCLKYVAKALLNRSTGLIMKDKPEGVHHIKSCSDSSSRIWYSLWMNIAFCGGLGPTSIFDPCFLTSSAPSPPSAPALAIPAAAPPLPTSVPAGAGVEAGAGAETVSSSLMIFSSFFLYN | soluble |
| MFNYSGLNEECGVFGIWNHPEAAQLTYMGLHSLQHRGQEGAGIVVSDQNELKGERGLGLLTEAIKDDQMERLKGYQHAIGHVRYATSGNKGIENIQPFLYHFYDMSVGICHNGNLINAKSLRQNLEKQGAIFHSSSDTEVIMHLIRRSKAPTFEEALKESLRKVKGGFTFAILTKDALYGAVDPNAIRPLVVGKMKDGTYILASETCAIDVLGAEFVQDIHAGEYVVINDKGITVKSYTHHTTTAISAMEYIYFARPDSTIAGKNVHAVRKASGKKLAQESPVNADMVIGVPNSSLSAASGYAEEIGLPYEMGLVKNQYVARTFIQPTQELREQGVRVKLSAVKDIVDGKNIILVDDSIVRGTTIRRIVKMLKDSGANKVHVRIASPEFMFPSFYGIDVSTTAELISASKSPEEIKDYIGADSLAYLSVDGLIESIGLDYDAPYSGLCVESFTGDYPAGLYDYEANYKAHLSHRQKQYISKNKHFFDSEGNLNV | not soluble |
| MFPMNYSLIDLSAIECPESDLFIEGVVLAANLATRPLDPEQWLPELFTEQHQALLQPVTEQIHRQYQLLKGNGYDLLALLAEHAPSRKQGLADFAEGFMQLWPQVEPMWQQGAFADGSIRMLQALLTTLMLAIDEAQTQAQMREAGYEQVPALADLIEQLNLMVHEVALAADEAMLGAKAQSVNPFKGIGRNDACPCDSGKKFKQCCGQ | not soluble |
| MFQLSVQDIHPGEQAGNKEEAIRQIAAALAQAGNVAGGYVDGMLAREQQTSTFLGNGIAIPHGTTDTRDQVLKTGVQVFQFPQGVTWGEGQVAYVAIGIAASSDEHLGLLRQLTHVLSDDSVAEQLKSATTAEELRALLMGEKQSEQLKLDNETMTLDVIASSLVTLQALNAARLKEAGAVDAAFVAKTINDSPMNLGQGIWLNDSAEGNLRSAVAVSRATQAFDVEGEKAALLVTVAMNDEQPIAVLKRLGDLLLNNKADRLLSADAATLLALLTSDDALTDDVLSAEFVVRNEHGLHARPGTMLVNTIKQFNSEITVTNLDGTGKPANGRSLMKVVALGVKKGHRLRFTAQGEDAEQALKAIGDAIAAGLGEGA | not soluble |
